Holding throughout (settings): both partners purified
The target of test [1] is T1, Recombinant His-tagged SRP21 (S. cerevisiae, UniProt P32342 1-167).
T1 construct: SRP21 of the yeast signal recognition particle; subcloned into the NdeI and XhoI sites of pET22b; source: E. coli Rosetta (DE3), pET22b, purified (Ni-NTA)
T1 sequence (looked up): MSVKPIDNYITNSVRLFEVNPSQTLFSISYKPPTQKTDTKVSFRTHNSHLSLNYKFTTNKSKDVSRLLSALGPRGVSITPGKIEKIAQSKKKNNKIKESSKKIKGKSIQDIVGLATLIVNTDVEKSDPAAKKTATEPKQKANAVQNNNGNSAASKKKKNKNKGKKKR
Put plainly: co-IP; as a3 but purified Ded1 with combinations of purified SRP proteins (SRP21 with SRP14; SRP54 with Sec65; SRP14, SRP21, SRP54 and Sec65 together); recovered with Ded1-specific IgG on protein A-Sepharose beads; SDS-PAGE, Coomassie blue.

Test [2] concerns the target T2, Recombinant Ded1-His (S. cerevisiae, UniProt P06634 1-604).
T2 construct: Ded1, DEAD-box RNA helicase of budding yeast, wild type, recombinant; also called purified Ded1
The description is as above.

Test [3] addresses T2, Recombinant Ded1-His. Put plainly: co-IP; purified Ded1 (4 µg) with one purified SRP protein (4-6 µg), no RNA, 300 µl 1X PBS with 2 mM MgCl2, 45 min at 30°C; recovered with Ded1-specific IgG cross-linked to protein A-Sepharose beads, 1 h at 18°C; 12% SDS-PAGE, Coomassie blue.

T2 sequence (P06634 whole entry): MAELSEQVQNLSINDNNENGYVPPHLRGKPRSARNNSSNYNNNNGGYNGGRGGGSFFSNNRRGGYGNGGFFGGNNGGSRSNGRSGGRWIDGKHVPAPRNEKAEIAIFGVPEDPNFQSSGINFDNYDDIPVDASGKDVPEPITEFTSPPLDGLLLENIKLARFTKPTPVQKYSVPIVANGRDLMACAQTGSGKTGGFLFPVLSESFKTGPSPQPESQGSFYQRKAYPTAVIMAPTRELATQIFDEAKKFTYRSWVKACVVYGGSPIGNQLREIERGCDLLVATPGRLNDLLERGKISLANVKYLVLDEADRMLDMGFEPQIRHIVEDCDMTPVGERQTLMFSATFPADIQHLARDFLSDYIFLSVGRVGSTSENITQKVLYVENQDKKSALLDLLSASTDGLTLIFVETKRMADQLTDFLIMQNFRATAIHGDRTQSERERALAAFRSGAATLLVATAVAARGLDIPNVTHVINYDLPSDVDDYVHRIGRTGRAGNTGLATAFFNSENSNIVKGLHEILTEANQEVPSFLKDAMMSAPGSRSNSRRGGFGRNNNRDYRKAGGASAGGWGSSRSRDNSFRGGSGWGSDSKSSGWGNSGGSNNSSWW

B1: Recombinant His-tagged SRP14 (natural protein, S. cerevisiae, UniProt P38985 1-146, looked up)
chain: MANTGCLSPGAFLSKVPEFFQTANEKHITVRLTAKRLIEHDPVEGNLEFDSTNHPDYDVSKKASEISVSSRSDREYPLLIRMSYGSHDKKTKCSTVVKASELDQFWQEYSSVFKGGMQNLIKKKKKKSKNGTISKTGKKNKVAKKN
notes: SRP14 of the yeast signal recognition particle; subcloned into the NdeI and XhoI sites of pET22b; source: E. coli Rosetta (DE3), pET22b, purified (Ni-NTA)
With B1, the binding result (in test [1]; with Recombinant Ded1-His [2]) was “binds” each time.

B2: Recombinant His-tagged Sec65 (natural protein, S. cerevisiae, UniProt P29478 1-273, looked up)
chain: MPRLEEIDDFNDIDDLDMELAELDPSLRTPIAPKITPKVVRSQDQENPAFLPGTNNNSNSNNNSSNEKEQLSFINPKTGKVERSEAISKKDLEEVKRFQVLYPCYFDINRSHKEGRRVPKELAVENPLAKTMADAVRELGILCIFEGEKCHPQDFGNPGRIRVLFKENGQLIGAATKFKGGKRQLMKAVGEYMKRHPTTIESLREIPYGPDFDNIEFKKIPRVKGFKMNEIVPLHSPFLMGHPMTKSVYETPKITAAEKSFKPPKNKYKVVRR
notes: Sec65 of the yeast signal recognition particle; source: E. coli Rosetta (DE3), pET19b, purified (Ni-NTA)
Take B2: in the test with Recombinant Ded1-His [3], the binding result is given as “binds”.

These data come from publication doi:10.1101/2020.11.08.373522, “The DEAD-box RNA helicase Ded1 from yeast is associated with the signal recognition particle (SRP), and its enzymatic activity is regulated by SRP21” (bioRxiv, 2020).
